In test [1] the target is T1, His-hAurora-A-CD (Aurora-A catalytic domain, 122-403aa) (human, UniProt O14965 122-403).
T1 construct: Cloned into pET-28a at the BamHI site; also called His-Aurora-A-CD; hAurora-CD; source: E. coli Rosetta (DE3), purified
T1 sequence (looked up): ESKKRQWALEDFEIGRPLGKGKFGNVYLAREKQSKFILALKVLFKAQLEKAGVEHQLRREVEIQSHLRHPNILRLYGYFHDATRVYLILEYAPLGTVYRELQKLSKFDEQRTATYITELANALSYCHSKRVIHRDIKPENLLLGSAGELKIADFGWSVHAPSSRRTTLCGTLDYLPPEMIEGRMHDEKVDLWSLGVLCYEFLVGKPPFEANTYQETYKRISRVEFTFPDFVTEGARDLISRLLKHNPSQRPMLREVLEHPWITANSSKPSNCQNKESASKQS
The test is described as follows: pull-down; 5 μg His-hAurora-A-CD with 5 μg GST-BuGZ-N or GST on glutathione-agarose, 200 μL 0.1% PBST (Triton X-100), 4°C, 2 h; Western blot and Coomassie. The note with it: both partners purified.

Test [2] concerns the target T2, Aurora-A catalytic domain (CD, 128-403aa), unlabelled, as used in the NMR titration (human, UniProt O14965 128-403).
T2 construct: also called Aurora-A CD; AuroraA Kinase; source: purified
T2 sequence (looked up): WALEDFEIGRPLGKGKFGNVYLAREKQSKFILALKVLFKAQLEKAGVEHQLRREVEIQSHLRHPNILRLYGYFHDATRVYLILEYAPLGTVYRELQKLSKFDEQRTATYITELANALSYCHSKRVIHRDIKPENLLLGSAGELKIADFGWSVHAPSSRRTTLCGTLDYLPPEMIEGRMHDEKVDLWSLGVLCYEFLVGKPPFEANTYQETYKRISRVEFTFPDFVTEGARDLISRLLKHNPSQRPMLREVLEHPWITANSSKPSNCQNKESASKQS
The test is described as follows: NMR titration; 1H-15N HSQC of labelled Aurora-A IDR (0.1 mM) without and with unlabelled catalytic domain, 1:2 IDR:CD molar ratio; 278 K; 20 mM NaH2PO4, 50 mM NaCl, 2 mM EDTA, 1 mM DTT, pH 6.4. The note with it: both partners purified.

B1: GST-BuGZ-N (hBuGZ N-terminus, 1-92aa) (domain or fragment)
chain: not shown
notes: BuGZ (ZNF207), human, N-terminus with the zinc fingers, residues 1-92; Cloned into pGEX-6P-1 at the EcoRI site; also called GST-BuGZ-N-terminus; source: E. coli Rosetta (DE3), purified
For the molecule B1, in test [1], the binding result was “binds”.

B2: Aurora-A IDR (intrinsic disordered region, 1-127aa) (domain or fragment, human, UniProt O14965 1-127, looked up)
chain: MDRSKENCISGPVKATAPVGGPKRVLVTQQFPCQNPLPVNSGQAQRVLCPSNSSQRIPLQAQKLVSSHKPVQNQKQKQLQATSVPHPVSRPLNNTQKSKQPLPSAPENNPEEELASKQKNEESKKRQ
notes: Aurora-A (Aurora kinase A), human, N-terminal intrinsic disordered region; 1-127aa in the NMR text and legend, 1-126aa in the constructs section; The methods list the construct pET-28a-hAurora-IDR as 1-126aa; the NMR results and legend say 1-127aa; Uniformly isotope-labelled for NMR; also called hAurora-IDR; source: E. coli BL21(DE3), isotope-labelled (15N, 13C), purified, His tag removed by TEV …
For B2, the binding result in test [2] was “binds”.
